Drawing on paper PMC2651784, this text covers binding result and binding signal for 3 molecules.

Where two headings read alike, the source gives them in different places.

The target in one data set is T1, GAF (GAGA factor) (UniProt Q08605 1-582).
T1 sequence: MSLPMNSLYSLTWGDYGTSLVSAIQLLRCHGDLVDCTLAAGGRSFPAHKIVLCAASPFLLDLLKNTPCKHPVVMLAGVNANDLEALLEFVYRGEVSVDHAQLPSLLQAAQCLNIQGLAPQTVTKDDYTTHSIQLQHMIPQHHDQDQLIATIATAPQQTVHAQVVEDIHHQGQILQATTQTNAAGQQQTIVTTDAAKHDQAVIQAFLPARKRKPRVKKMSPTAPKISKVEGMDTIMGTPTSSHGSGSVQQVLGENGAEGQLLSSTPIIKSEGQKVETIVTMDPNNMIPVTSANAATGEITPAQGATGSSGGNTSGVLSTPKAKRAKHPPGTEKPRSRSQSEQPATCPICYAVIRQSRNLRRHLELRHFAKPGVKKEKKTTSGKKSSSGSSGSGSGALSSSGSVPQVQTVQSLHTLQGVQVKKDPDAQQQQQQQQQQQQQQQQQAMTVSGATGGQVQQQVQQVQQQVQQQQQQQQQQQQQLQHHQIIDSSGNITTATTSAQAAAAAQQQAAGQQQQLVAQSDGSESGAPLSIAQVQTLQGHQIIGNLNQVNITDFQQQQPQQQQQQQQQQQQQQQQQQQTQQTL
Briefly: EMSA. (In general: A gel shift assay detects complexes by their altered migration in electrophoresis.)

The target in a further data set is Hsf;Ttk69 (Drosophila melanogaster?;Drosophila …, UniProt P22813;P17789 1-691;1-643, |). Briefly: EMSA.
The next data set has as its target T2, Hsf (UniProt P22813 1-691).
T2 sequence: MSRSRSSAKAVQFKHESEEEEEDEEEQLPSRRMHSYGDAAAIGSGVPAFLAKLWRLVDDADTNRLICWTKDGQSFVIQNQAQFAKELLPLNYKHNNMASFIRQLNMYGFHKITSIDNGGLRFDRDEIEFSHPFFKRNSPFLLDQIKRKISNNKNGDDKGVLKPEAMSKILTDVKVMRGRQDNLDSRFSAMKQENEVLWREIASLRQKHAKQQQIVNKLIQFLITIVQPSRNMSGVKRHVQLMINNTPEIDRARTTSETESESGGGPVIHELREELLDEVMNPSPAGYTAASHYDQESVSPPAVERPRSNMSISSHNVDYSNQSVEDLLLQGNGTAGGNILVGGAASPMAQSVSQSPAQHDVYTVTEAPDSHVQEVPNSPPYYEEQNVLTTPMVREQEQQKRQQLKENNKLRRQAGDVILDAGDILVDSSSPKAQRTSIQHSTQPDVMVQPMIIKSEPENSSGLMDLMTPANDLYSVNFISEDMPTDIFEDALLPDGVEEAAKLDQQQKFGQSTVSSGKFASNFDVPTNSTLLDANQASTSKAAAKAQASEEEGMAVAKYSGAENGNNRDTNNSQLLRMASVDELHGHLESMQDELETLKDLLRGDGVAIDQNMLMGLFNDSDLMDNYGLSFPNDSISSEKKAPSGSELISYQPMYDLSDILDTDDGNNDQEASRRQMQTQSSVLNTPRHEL
Briefly: EMSA.

The next data set deals with GAF (GAGA factor);Ttk69 (Drosophila melanogaster?;Drosophila …, UniProt Q08605;P17789 1-582;1-643, |). Briefly: EMSA.
The target in the next data set is Ttk69 (UniProt P17789 1-643). Briefly: EMSA.
In data set [1] the target is T3, GAF (GAGA factor);Hsf-S378D (Drosophila melanogaster?;Drosophila …, UniProt Q08605;P22813 1-582;1-691, |S378D).
T3 sequence 1: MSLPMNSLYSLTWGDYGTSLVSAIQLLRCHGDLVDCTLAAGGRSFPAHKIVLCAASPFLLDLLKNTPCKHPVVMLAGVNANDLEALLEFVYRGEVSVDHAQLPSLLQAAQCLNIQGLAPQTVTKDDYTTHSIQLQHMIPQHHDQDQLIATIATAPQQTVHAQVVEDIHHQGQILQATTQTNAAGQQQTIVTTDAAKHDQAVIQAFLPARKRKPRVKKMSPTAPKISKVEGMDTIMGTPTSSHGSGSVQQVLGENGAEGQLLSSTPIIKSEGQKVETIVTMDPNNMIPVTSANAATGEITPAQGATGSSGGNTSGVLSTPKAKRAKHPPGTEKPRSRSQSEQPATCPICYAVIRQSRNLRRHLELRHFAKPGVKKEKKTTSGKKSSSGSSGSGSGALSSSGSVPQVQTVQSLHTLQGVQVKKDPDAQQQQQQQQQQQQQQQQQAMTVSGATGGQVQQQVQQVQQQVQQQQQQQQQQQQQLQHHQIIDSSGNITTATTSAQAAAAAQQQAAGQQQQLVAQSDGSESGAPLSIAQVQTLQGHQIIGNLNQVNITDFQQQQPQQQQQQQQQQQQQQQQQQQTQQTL
T3 sequence 2: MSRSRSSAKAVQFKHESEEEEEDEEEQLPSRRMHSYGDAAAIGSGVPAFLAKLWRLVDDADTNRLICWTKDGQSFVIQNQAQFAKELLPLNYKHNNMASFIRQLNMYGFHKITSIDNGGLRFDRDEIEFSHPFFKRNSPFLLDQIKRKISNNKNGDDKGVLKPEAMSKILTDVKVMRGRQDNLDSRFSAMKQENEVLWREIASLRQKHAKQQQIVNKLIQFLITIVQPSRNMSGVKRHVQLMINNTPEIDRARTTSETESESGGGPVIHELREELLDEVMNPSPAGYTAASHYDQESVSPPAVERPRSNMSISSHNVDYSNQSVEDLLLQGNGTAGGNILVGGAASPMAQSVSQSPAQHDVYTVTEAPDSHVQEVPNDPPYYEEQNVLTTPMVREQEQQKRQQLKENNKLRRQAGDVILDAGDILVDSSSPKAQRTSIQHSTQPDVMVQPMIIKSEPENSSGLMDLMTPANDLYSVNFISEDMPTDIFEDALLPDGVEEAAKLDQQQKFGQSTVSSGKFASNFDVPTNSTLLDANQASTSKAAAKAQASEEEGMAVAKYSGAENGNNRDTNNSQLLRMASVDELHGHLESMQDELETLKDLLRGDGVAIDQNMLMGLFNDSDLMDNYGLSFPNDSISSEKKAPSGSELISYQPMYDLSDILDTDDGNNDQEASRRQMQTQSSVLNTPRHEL
Briefly: EMSA.

The target in data set [2] is T4, GAF (GAGA factor);Hsf;Ttk69 (Drosophila melanogaster?;Drosophila …, UniProt Q08605;P22813;P17789 1-582;1-691;1-643, ||). Kind of data set: competition.
Data set [3] addresses T4, GAF (GAGA factor);Hsf;Ttk69. Kind of data set: competition. The source holds these as a separate data set.

B1: tor-RE 25-bp probe (dsDNA)
DNA 1: CGTTCCTTGCTCAATGAATTTTTCG
DNA 2: CGAAAAATTCATTGAGCAAGGAACG
Regarding B1, the binding result is on record as “binds” in the data set with GAF (GAGA factor); “no binding” with Hsf;Ttk69; “no binding” in the data set with Hsf; “no binding” in the data set with Ttk69; “binds” in data set [1]. The molecule further had a binding signal in the data set with GAF (GAGA factor);Ttk69 of 5 fold vs GAF alone.

B2: TBS competitor (dsDNA)
DNA 1: TCCTCATGGTCCTGCCGAGCAG
DNA 2: CTGCTCGGCAGGACCATGAGGA
For the molecule B2, the binding result in data set [2] was “no binding”.

B3: HSE competitor (dsDNA)
DNA 1: CGCCTCGAATGTTCGCGAAAAGAGCGCCGG
DNA 2: CCGGCGCTCTTTTCGCGAACATTCGAGGCG
In the case of B3, the binding result in data set [3] is reported as “binds”.
